Experiment: soluble on expression in E. coli; label from the status in PepcDB or PDB records

## MGSDKIHHHHHHMQIKNTQLGHIAWCETTAQHIAPQDFAVDGWREKNAVVGQSKGRYTTWFVKTDNSDSPQTWVLRHYWRGGMMEKFSRDAYFYTGLQRTRAVAELAILEVLYQEGFAVPRPIAANVERFGLWYRADIIIEHVAGANDLVAYLSHNPMTESQWYLLGETIAKFHQRGVYHADLNAKNILLAHGEFYLIDFDRGELRTPQPTWQQANLDRLLRSFNKEHAKLTTLQFSQQHWLQLLAGYQSINPI
  soluble on expression in E. coli: not soluble

## MSLGFHEVRFPASLSFGSVGGPERHTDVVTLANGHEERNTPWAHSRRRYDAGVAMRGLDDIETLIAFFEARQAQLHGFRWKDWSDYKSGPALAEPAYHDQIIAIGDDVTASFPLIKAYRSGEQIYRRPITKPVAGTVRIGLSGDEQQEGVHYEVDTTTGIITFAHPPNEGLEITAGFEFDVPVRFDTDRIQTSVASFQAGDMPNVPVVEIRVEGHHHHHH
  soluble on expression in E. coli: soluble

## MGSDKIHHHHHHMRILILGAGKMGSFFTDILSFQHETAVFDVNPHQLRFVYNTYRFTTLEEIKEFEPELVINAATVKYTLDAFRKILPVLPKDCILSDIASVKTGLKKFYEESGFRYVSTHPMFGPTFASLSNLSSESAIIISESDHLGKVFFKDLYNSLNLNIFEYTFDEHDETVAYSLSIPFVSTFVFAAVMKHQEAPGTTFKKHMAIAKGLLSEDDYLLQEILFNPRTPSQVENIRTELKQLLEIITNKDAEGMKKYLTKIREKIK
  soluble on expression in E. coli: not soluble

## MTKVHVVLRKEDIDEMALADRKVAVVFDVLLATSSITAVLAAGARSVIPVRDAEEAKEIALRLPEGSYELVGEYEGRTIAGFHPPAPLFLQTVCPGKTVVLSTTNGTVAIRRAQPARAVYAASLLNSPAVSEHICRLHQEETIIVICSGSSGRFCLEDFYGAGYFVHCLIEQGINAAELSDSATAAWFFYRQYSDEGKAKEVLSASRVGRWMTAYGLEKEIDYINRHGSLSAVPKLELGPFGLELRNMASTKVAKEGISP
  soluble on expression in E. coli: soluble

## MGSDKIHHHHHHMKKLFMSEYLNYVFQKKVWIVENIYMIKIMQLYYSSYNKKFISHTFFTDAIKNSSFPIFLNYVNNLNDKILYHSQVHGVKHILNVTFFSFLIACNENMSANDMGILLETALYHDIGRDDDMEDSDHGHRGAKKILMHISDNKMDMIIPAVIHAHSLLDEEAYQIFRQYNIEKSQYARYSKILSIIKDADALDRFRLRPNSLNPEYFRIDFSKILISLACVLSKVEWHE
  soluble on expression in E. coli: not soluble

## MGSDKIHHHHHHVSVDDLIDTTSLELLVAPAPLADFLRQSSAMHRHLCPRQVLGARMGMYAGELLGLTLPQKNKRLYTFVETDGCFADGVSVTTGCWLGRRTMRLMDEGKVAATFVDTQTGQAFRIAPRPNVRDLARQYAPNARSRWHAYLIAYQLMPLTDLLIAQPITLTVDLKAIISRNGLRTTCDHCGEEIINAREVIRDGQTLCRTCGGEGYYTITG
  soluble on expression in E. coli: not soluble

## MAQSEISKREKGRALITVANNVAGFNLWKRLVEEGYDVDAILPSEDKYNLLLSELVSRKNKKYDFIVNTVDRHDYAVVTNKMLKWLYPTEKIIFISSDLVYEPRPGKKKENDNAYPPTMEGKYFLEAESALDVNSDLVLRVGLVTGRCVPNILTNTINLSRANMSIDLSGAVVRNFISNADLSEYIIRLLDKNGIYNASAKSMTPRDFALELCAKINVNCKLRRTTDDKVFDYSMDTTKIELTTGYYTKDIFANISSGLYLLG
  soluble on expression in E. coli: soluble

## MSLDHHLQGPVVAGMPNLHSHAFQRGMAGLSESRSGEKDSFWSWRKRMYHFLQVLSPEDVEAIASQLYLEMLKAGYTSVGEFHYLHHAVDGKHYANPAEMSERILAASETTGIGLTHLPVLYRFGGFGSREPSFQQGRFIHEPDEFVSLLEKLSPSFEKHPNRRLGMAPHSLRAVSPDLLSKVLPEFQRLCPGSPLHLHISEQTAEVEECLEWSGLRPVQWFFENLEPDSNWCLIHATHLDSQERRKLAESEVTVGLCPTTEANLGDGIFPMKEFMEEGGGFGIGSDSHVSISLCEELRWLEYQQRLLQRQRNCLREGHHHHHH
  soluble on expression in E. coli: soluble

## MARPIFSQEIDPYSQEVPKDVAISPSSKFDIYVEAPGEAPFEEADSPAMEYDRELAHHYSHKQLDFLEACSEKPSSKCGNEVFKNMLDETVPITDECCRDILKIGKDCHLGLVKLIFATYEYKNKASKGIPKSKQTWNECVFRVGSKIGAPVSFEQ
  soluble on expression in E. coli: soluble

## MEIGVPKEIKNQEFRVGLSPSSVRTLVEAGHTVFIETQAGIGAGFADQDYVQAGAQVVPSAKDAWSREMVVKVKEPLPAEYDLMQKDQLLFTYLHLAAARELTEQLMRVGLTAIAYETVELPNRSLPLLTPMSIIAGRLSVQFGARFLERQQGGRGVLLGGVPGVKPGKVVILGGGVVGTEAAKMAVGLGAQVQIFDINVERLSYLETLFGSRVELLYSNSAEIETAVAEADLLIGAVLVPGRRAPILVPASLVEQMRTGSVIVDVAVDQGGCVETLHPTSHTQPTYEVFGVVHYGVPNMPGAVPWTATQALNNSTLPYVVKLANQGLKALETDDALAKGLNVQAHRLVHPAVQQVFPDLA
  soluble on expression in E. coli: soluble

## MIAVQRAVESRSIPPKAIVPVYVATSRMIQNNYSQPYGAERSNKVHYNRVDVGIPQKHVKGVVETNAYKPTHDKYFAAVALQKYDNKEQFKQQLNADLEKKTPGKREIFLFIHGYNNNFADGTFRTAQFTYDYSLNVVTVHYSWPSAGSVPLYIYDRDSANFARDGLIELLTLISETKADQISVIAHSMGNFVIMEAFRTLALQGKYKPIQRITSFLMAAPDIDIDVFERQLNDIKKLPQPTAILVSRADKALAVSGRLTGGHHRVGDGSDIEMLRKNGIAVLDFSNVDGGAHNVFASSPTLMALAREGSLASTIMQGTELSPSQALLADSSSVLEKTTHLILYTPLRLLSPLTRQ
  soluble on expression in E. coli: not soluble

## MEETNAFSAFNQLLMSQNVVSPTKQPMELTNEKLMEFVRNAMQNQQGLPEVPNIIPSALPSMLSQIPTQPMPQMPVVIQTSQMNDVMGDQMLKASPSASSDMSSLDSDVADHPMTMMMQQQQDFQNPLQQLTIDSSANIAAGVNGNTEQRSSGRHETWLECFNTTKFAEYEALLFSVYVAERTDRKYDGWTYFDCLHRLQSKCRYRVRAKKQDEFYIIEEKGVHNHGAVEPVGQAGSHAGLPKTIREIVDRSYNENWPVEARTIKVDEEIQRLGLPENPRLGRQIDNRLAYLRRVKNLHETRRIQDQVNGTMVIKDPVKEAMLQALMEQNGGQLTVGQGFVDQIIANQGIPEMPIKKEEPTQPVESMEMAEQVAKPLAMNPSPDFFQFLQNQKLSHEHEQQQQQLHAAILAQAQAHAQAQAQAQQNLMESQKNIHQ
  soluble on expression in E. coli: not soluble

## MMTYDRNRNAITTGSRVMISGTGHTGIIKAIESEGLDAGQIRRGKTVIVEGCEGKFAPVELIRLGMN
  soluble on expression in E. coli: not soluble

## MGHHHHHHSHMLALATSIHQSQLDRERILSLEQRVVELQQTLAQKDQALGKLEQSLRLMEEASFDGTFLWKITNVTRRCHESACGRTVSLFSPAFYTAKYGYKLCLRLYLNGDGTGKRTHLSLFIVIMRGEYDALLPWPFRNKVTFMLLDQNNREHAIDAFRPDLSSASFQRPQSETNVASGCPLFFPLSKLQSPKHAYVKDDTMFLKCIVETST
  soluble on expression in E. coli: not soluble

## MYKGYLIDLDGTMYRGEEQIEEASDFVKALGERGIPYLFVTNNSTRKPEQVAEKLVRFDIPAKAEQVFTTSMATANFIYERKQDATVYMIGEEGLHDALVEKGFELVDENPDFVVVGLDRDITYEKLAKACLAVRNGATFISTNGDIAIPTERGLLPGNGSLTSVVAVSTGVDPIFIGKPESIIMEQALKVLGIEKNEALMVGDNYDTDILAGINAGMHTLLVHTGVTTVEKLTEYEVQPTQVVHNLTEWIEKM
  soluble on expression in E. coli: not soluble

## MQPGYNGHGRGIYNFIGMTANRRSNLHNTVALDPDILTDTFQQCLFYQYAQCSILLMKEGATGFPFALYAPSTVSSYLYMR
  soluble on expression in E. coli: not soluble

## MTPPIISPESFEALRRMRAAEPTMVAERFKQRRKRELLGEDGKLFIVAADHPARGALAVGDNETAMANRYELLERMAIALSRPGVDGVLGTPDIIDDLAALGLLDDKIVVGSMNRGGLRGASFEMDDRYTGYNVSSMVDRGVDFAKTLVRINLSDAGTAPTLEATAHAVNEAAAAQLPIMLEPFMSNWVNGKVVNDLSTDAVIQSVAIAAGLGNDSSYTWMKLPVVEEMERVMESTTMPTLLLGGEGGNDPDATFASWEHALTLPGVRGLTVGRTLLYPQDGDVAAAVDTAARLVHTDIQQFTSQSILEHHHHHH
  soluble on expression in E. coli: soluble

Source: the DeepSol protein solubility set
